Several values for one entry are separate records, joined by “and”; a condition that tells them apart may be missing. Equal entries are not always repeated.
Details: Myxococcus xanthus, Thermal, DSC, reversible: yes, whole UniProt chain shown
[1] = pH 3, glycine-HCl 20 mM, CaCl2 3 mM
[2] = pH 6, Sodium cacodylate 20 mM, CaCl2 3 mM

B1: Development-specific protein S wild type, P02966 (protein)
chain: MANITVFYNEDFQGKQVDLPPGNYTRAQLAALGIENNTISSVKVPPGVKAILYQNDGFAGDQIEVVANAEELGPLNNNVSSIRVISVPVQPRARFFYKEQFDGKEVDLPPGQYTQAELERYGIDNNTISSVKPQGLAVVLFKNDNFSGDTLPVNSDAPTLGAMNNNTSSIRIS
For B1, the “unfolding enthalpy (calorimetric)” value (pH 1.5, glycine-HCl 20 mM, CaCl2 3 mM) was 217 kJ/mol and 186 kJ/mol, the “unfolding enthalpy (calorimetric)” value (pH 1.5, glycine-HCl 20 mM) was 204 kJ/mol and 179 kJ/mol and the “unfolding enthalpy (calorimetric)” value (pH 1.75, glycine-HCl 20 mM, CaCl2 3 mM) was 213 kJ/mol and 196 kJ/mol. The “unfolding enthalpy (calorimetric)” value (pH 2, glycine-HCl 20 mM, CaCl2 3 mM) was 245 kJ/mol and 206 kJ/mol and 210 kJ/mol, the Tm (pH 2, glycine-HCl 20 mM) was 47.9 °C and the “unfolding enthalpy (calorimetric)” value (pH 2, glycine-HCl 20 mM) was 231 kJ/mol. The “unfolding enthalpy (calorimetric)” value (pH 2.25, glycine-HCl 20 mM, CaCl2 3 mM) was 276 kJ/mol and 231 kJ/mol and 228 kJ/mol, the Tm (pH 2.25, glycine-HCl 20 mM) was 38.3 °C and the “unfolding enthalpy (calorimetric)” value (pH 2.25, glycine-HCl 20 mM) was 275 kJ/mol. For the same protein, the “unfolding enthalpy (calorimetric)” value (pH 2.5, glycine-HCl 20 mM, CaCl2 3 mM) was 322 kJ/mol and 247 kJ/mol and 253 kJ/mol, the Tm [1] was 55 °C and 57.3 °C and 59 °C and the “unfolding enthalpy (calorimetric)” value [1] was 394 kJ/mol and 323 kJ/mol and 260 kJ/mol. For the same protein, the Tm (pH 3, glycine-HCl 20 mM) was 53.7 °C and 54.6 °C, the “unfolding enthalpy (calorimetric)” value (pH 3, glycine-HCl 20 mM) was 373 kJ/mol and 291 kJ/mol and the Tm [2] was 70.1 °C. For the same protein, the “unfolding enthalpy (calorimetric)” value [2] was 331 kJ/mol, the Tm (pH 6, Sodium cacodylate 20 mM) was 68.9 °C and the “unfolding enthalpy (calorimetric)” value (pH 6, Sodium cacodylate 20 mM) was 284 kJ/mol. For the same protein, the “unfolding enthalpy (calorimetric)” value (pH 9, glycine-NaOH 20 mM) was 350 kJ/mol and 278 kJ/mol and 272 kJ/mol.

Reference: FireProtDB (doi:10.1006/jmbi.1999.3146)
